Here are results for 6 sequences from the supplement of paper PMC11246515.

The nature of this data set: total protein half-life in vivo (active degradation + dilution); higher = more stable protein.
Where [1] appears, read: E. coli NCM3722 delta-clpP delta-lon delta-hslV, growth: N-lim chemostat, doubling time 6 h.
[2] abbreviates: E. coli NCM3722 delta-clpP, growth: N-lim chemostat, doubling time 6 h.
Setting [3] is: E. coli NCM3722 delta-hslV, growth: N-lim chemostat, doubling time 6 h.
[4] abbreviates: E. coli NCM3722 delta-lon, growth: N-lim chemostat, doubling time 6 h.
[5] abbreviates: E. coli NCM3722 delta-smpB, growth: N-lim chemostat, doubling time 6 h.
Where [6] appears, read: wild type E. coli NCM3722, growth: C-lim chemostat, doubling time 3 h.
[7] abbreviates: wild type E. coli NCM3722, growth: C-lim chemostat, doubling time 6 h.
[8] abbreviates: wild type E. coli NCM3722, growth: C-lim chemostat, doubling time 12 h.
Where [9] appears, read: wild type E. coli NCM3722, growth: N-lim chemostat, doubling time 6 h.
The mark [10] stands for this setting: wild type E. coli NCM3722, growth: N-lim chemostat, doubling time 12 h.
[11] abbreviates: wild type E. coli NCM3722, growth: P-lim chemostat, doubling time 6 h.
[12] abbreviates: wild type E. coli NCM3722, growth: P-lim chemostat, doubling time 12 h.

± gives the standard deviation of the averaged measurements.

On to “MLYKGDTLYLDWLEDGIAELVFDAPGSVNKLDTATVASLGEAIGVLEQQSDLKGLLLRSNKAAFIVGADITEFLSLFLVPEEQLSQWLHFANSVFNRLEDLPVPTIAAVNGYALGGGCECVLATDYRLATPDLRIGLPETKLGIMPGFGGSVRMPRMLGADSALEIIAAGKDVGADQALKIGLVDGVVKAEKLVEGAKAVLRQAINGDLDWKAKRQPKLEPLKLSKIEATMSFTIAKGMVAQTAGKHYPAPITAVKTIEAAARFGREEALNLENKSFVPLAHTNEARALVGIFLNDQYVKGKAKKLTKDVETPKQAAVLGAGIMGGGIAYQSAWKGVPVVMKDINDKSLTLGMTEAAKLLNKQLERGKIDGLKLAGVISTIHPTLDYAGFDRVDIVVEAVVENPKVKKAVLAETEQKVRQDTVLASNTSTIPISELANALERPENFCGMHFFNPVHRMPLVEIIRGEKSSDETIAKVVAWASKMGKTPIVVNDCPGFFVNRVLFPYFAGFSQLLRDGADFRKIDKVMEKQFGWPMGPAYLLDVVGIDTAHHAQAVMAAGFPQRMQKDYRDAIDALFDANRFGQKNGLGFWRYKEDSKGKPKKEEDAAVEDLLAEVSQPKRDFSEEEIIARMMIPMVNEVVRCLEEGIIATPAEADMALVYGLGFPPFHGGAFRWLDTLGSAKYLDMAQQYQHLGPLYEVPEGLRNKARHNEPYYPPVEPARPVGDLKTA”, for which the “total protein half-life in vivo” value under setting [1] was 4.12 ± 0.27 h; the “total protein half-life in vivo” value under setting [2] is 3.24 ± 0.056 h; the “total protein half-life in vivo” value under setting [3] came to 3.02 ± 0.12 h; the “total protein half-life in vivo” value under setting [4] was 3.8 ± 0.82 h; the “total protein half-life in vivo” value under setting [5] was 3.27 ± 0.31 h; the “total protein half-life in vivo” value under setting [6] came out at 2.93 ± 0.14 h. Also, the “total protein half-life in vivo” value runs as follows: under setting [7], 4.89 ± 0.061 h; under setting [8], 8.047 ± 0.056 h; under setting [9], 3.34 ± 0.46 h; under setting [10], 4.71 ± 0.23 h; under setting [11], 5.3 ± 0.11 h; under setting [12], 9.82 ± 0.77 h.

As to “MGSTRKGMLNVLIAAVLWGSSGVCAQYIMEQSQMSSQFLTMTRLIFAGLILLTLSFVHGDKIFSIINNHKDAISLLIFSVVGALTVQLTFLLTIEKSNAATATVLQFLSPTIIVAWFSLVRKSRPGILVFCAILTSLVGTFLLVTHGNPTSLSISPAALFWGIASAFAAAFYTTYPSTLIARYGTLPVVGWSMLIGGLILLPFYARQGTNFVVNGSLILAFFYLVVIGTSLTFSLYLKGAQLIGGPKASILSCAEPLSSALLSLLLLGITFTLPDWLGTLLILSSVILISMDSRRRARKINRPARHK”, the “total protein half-life in vivo” value under setting [2] is 6.18 h; the “total protein half-life in vivo” value under setting [3] was found to be 4.72 ± 1.2 h; the “total protein half-life in vivo” value under setting [4] was 5.26 h; the “total protein half-life in vivo” value under setting [7] amounted to 6.04 h; the “total protein half-life in vivo” value under setting [8] was found to be 13.3 h; the “total protein half-life in vivo” value under setting [9] stood at 5.29 h. Further, the “total protein half-life in vivo” value by setting is: under setting [10], 12.8 h; under setting [11], 5.97 h; under setting [12], 12 ± 0.74 h.

With “MGKTISIKVLFGIYLLLMAGKVFAFSCNVDGGSSIGAGTTSVYVNLDPVIQPGQNLVVDLSQHISCWNDYGGWYDTDHINLVQGSAFAGSLQSYKGSLYWNNVTYPFPLTTNTNVLDIGDKTPMPLPLKLYITPVGAAGGVVIKAGEVIARIHMYKIATLGSGNPRNFTWNIISNNNVVMPTGGCTVDSRNVTVDLPDFPGSAEIPLGVYCSSEQKLSFYLSGATTDSSRQVFANTAPDATKASGVGVTLMRNGKILATGENVSLGTVNKSKVPLGLSATYGQTGNKVSAGTVQSVIGVTFIYE”, the “total protein half-life in vivo” value came out at 5.18 ± 0.35 h under setting [2]; 5.306 ± 0.0055 h under setting [5]; 2.85 ± 0.12 h under setting [6]; 3.09 h under setting [7]; 8.385 ± 0.065 h under setting [8]; 6.56 h under setting [9]. Under setting [10], the “total protein half-life in vivo” value is 12.7 ± 0.21 h.

Take MTTSMLNAKLLPTAPSAAVVVVRVVVVVGNAP: under setting [1], the “total protein half-life in vivo” value came out at 3.54 h.

Turning to “MVWLANPERYGQMQYRYCGKSGLRLPALSLGLWHNFGHVNALESQRAILRKAFDLGITHFDLANNYGPPPGSAEENFGRLLREDFAAYRDELIISTKAGYDMWPGPYGSGGSRKYLLASLDQSLKRMGLEYVDIFYSHRVDENTPMEETASALAHAVQSGKALYVGISSYSPERTQKMVELLREWKIPLLIHQPSYNLLNRWVDKSGLLDTLQNNGVGCIAFTPLAQGLLTGKYLNGIPQDSRMHREGNKVRGLTPKMLTEANLNSLRLLNEMAQQRGQSMAQMALSWLLKDDRVTSVLIGASRAEQLEENVQALNNLTFSTKELAQIDQHIADGELNLWQASSDK”, the “total protein half-life in vivo” value under setting [1] is 5.44 ± 0.59 h; the “total protein half-life in vivo” value under setting [2] was 5.3 ± 0.24 h; the “total protein half-life in vivo” value under setting [3] is 4.93 ± 0.43 h; the “total protein half-life in vivo” value under setting [4] is 5.69 ± 0.77 h; the “total protein half-life in vivo” value under setting [5] came to 4.18 ± 0.68 h; the “total protein half-life in vivo” value under setting [6] came to 3.2 ± 0.16 h. The “total protein half-life in vivo” value is, setting by setting: under setting [7], 6.28 ± 0.24 h; under setting [8], 11.4 ± 1.3 h; under setting [9], 5.12 ± 0.82 h; under setting [10], 8.176 ± 0.024 h; under setting [11], 6.24 ± 0.32 h; under setting [12], 12.4 ± 1.1 h.

Consider “MLAFLNQVRKPTLDLPLEVRRKMWFKPFMQSYLVVFIGYLTMYLIRKNFNIAQNDMISTYGLSMTQLGMIGLGFSITYGVGKTLVSYYADGKNTKQFLPFMLILSAICMLGFSASMGSGSVSLFLMIAFYALSGFFQSTGGSCSYSTITKWTPRRKRGTFLGFWNISHNLGGAGAAGVALFGANYLFDGHVIGMFIFPSIIALIVGFIGLRYGSDSPESYGLGKAEELFGEEISEEDKETESTDMTKWQIFVEYVLKNKVIWLLCFANIFLYVVRIGIDQWSTVYAFQELKLSKAVAIQGFTLFEAGALVGTLLWGWLSDLANGRRGLVACIALALIIATLGVYQHASNEYIYLASLFALGFLVFGPQLLIGVAAVGFVPKKAIGAADGIKGTFAYLIGDSFAKLGLGMIADGTPVFGLTGWAGTFAALDIAAIGCICLMAIVAVMEERKIRREKKIQQLTVA [P0AGC0]”, for which the “total protein half-life in vivo” value was found to be 1.74 ± 0.042 h under setting [6], 1.96 ± 0.031 h under setting [7] and 3.78 ± 2.4 h under setting [8].
